B1: oncostatin M (OSM): 28-kDa glycoprotein of cytokine family, macrophage derived factor (protein)
chain: AAIGSCSKEYRVLLGQLQKQTDLMQDTSRLLDPYIRIQGLDVPKLREHCRERPGAFPSEETLRGLGRRGFLQTLNATLGCVLHRLADLEQRLPKAQDLERSGLNIEDLEKLQMARPNILGLRNNIYCMAQLLDNSDTAEPTKAGRGASQPPTPTPASDAFQRKLEGCRFLHGYHRFMHSVGRVFSKWGESPNRSRR
B2: G-CSF: granulocyte colony stimulating factor, growth factor used for stem cell mobilization (protein, UniProt P09919 31-207, looked up)
Granulocyte …: TPLGPASSLPQSFLLKCLEQVRKIQGDGAALQEKLVSECATYKLCHPEELVLLGHSLGIPWAPLSSCPSQALQLAGCLSQLHSGLFLYQGLLQALEGISPELGPTLDTLQLDVADFATTIWQQMEELGMAPALQPTQGAMPAFASAFQRRAGGVLVASHLQSFLEVSYRVLRHLAQP

Columns and labels:
[1] = test system: SDF-1α/CXCL12 expression in human mesenchymal stem cells; test: Induction of SDF-1α/CXCL12 gene expression in human mesenchymal stem cells by oncostatin M (qPCR); assay type: cell-based; conditions: increasing concentrations of OSM
Method: Therefore, the effect of such media on the gene expression of SDF-1α/CXCL12 in human (stromal) mesenchymal stem cells by qPCR was evaluated (primers forward ATGCCCATGCCGATTCTT [SEQ ID NO. 5]; reverse […] [SEQ ID NO. 6]; reference sequence NCBI NM_000609.6).

[2] = test system: LKS stem cells; test: G-CSF alone induced mobilization of LKS stem cells in diabetic mice; assay type: in vivo; conditions: G-CSF only
From the text: In order to obtain in vivo validation of such mechanism, inhibition of oncostatin M (OSM) has been carried out in mice induced with diabetes by injecting streptozotocin as mentioned above and analyzed after 4 weeks from hyperglycemia development, by intraperitoneal injection of a polyclonal neutralizing antibody (AF-495-NA, R&D Systems) specific for murine oncostatin M (OSM), before beginning a marrow stimulation cycle by a subcutaneous injection of G-CSF ([…] for 4 consecutive days).

Molecule	expression of SDF-1α/CXCL12 [1]	mobilization of LKS stem cells [2]
B1	progressively increase the expression	–
B2	–	not able to induce mobilization

— patent US20200291109A1, “Composition to induce bone marrow stem cell mobilization” (Universitá degli Studi di Padova, priority 2014, published 2020)
